Results on 56 molecules are retold here after patent publication US20040253247A1 (Genentech, published 2004).

As usually defined, the EC50 is the concentration at which the effect is half-maximal. A higher EC50 goes with lower potency in that assay.

The target in test [1] is T1, IgG-Fc (UniProt P01857-1 108-330 = IgG part, limits assumed).
T1 construct: domain: IgG-Fc; also called biotinylated-IgG-Fc; biotin-IgG-Fc
Description: phage ELISA, M13/gIII display.

A further test addresses T2, ovalbumin (UniProt P01012 2-386).
T2 sequence (looked up): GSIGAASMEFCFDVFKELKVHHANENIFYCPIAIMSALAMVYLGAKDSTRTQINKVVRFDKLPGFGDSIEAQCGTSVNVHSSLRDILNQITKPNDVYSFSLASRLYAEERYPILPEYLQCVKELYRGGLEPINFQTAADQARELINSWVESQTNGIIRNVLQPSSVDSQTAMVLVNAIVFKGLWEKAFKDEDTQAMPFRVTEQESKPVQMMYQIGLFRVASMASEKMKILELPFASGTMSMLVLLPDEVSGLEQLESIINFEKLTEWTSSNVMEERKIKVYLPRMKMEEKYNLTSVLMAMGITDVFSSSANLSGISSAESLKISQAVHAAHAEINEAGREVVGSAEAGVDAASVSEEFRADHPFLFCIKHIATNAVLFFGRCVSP
Description: phage ELISA, photograph of the plate.

Test [2] addresses T1, IgG-Fc. Nature of the test: phage ELISA, M13/gIII display, ALA scan. (ELISA stands for enzyme-linked immunosorbent assay.)

Where no end group is shown, it is not given here.

B1: phage clone GEPDCAWHLGELVWCTPMVF (peptide)
peptide: GEPDCAWHLGELVWCTPMVF
notes: M13/gIII phage display; Secondary Optimization
In the test with IgG-Fc [1], B1 displayed an EC50 of 7 nM.

B2: RB-R8 (peptide)
peptide: QGLIGDICLPRWGCLWGDSV
modifications: not fully specified (bridges); printed as Gln-Gly-Leu-Ile-Gly-Asp-Ile-Cys-Leu-Pro-Arg-Trp-Gly-Cys-Leu-Trp-Gly-Asp-Ser-Val; cysteine pairing not given here
notes: phage clone, Library RB
B2: the binding result with ovalbumin was “no binding”.

B3: phage clone GEQDCSYHMGELVWCTTVDG (peptide)
peptide: GEQDCSYHMGELVWCTTVDG
notes: as for B1
Molecule B3 displayed an EC50 with IgG-Fc [1] of 210 nM.

B4: phage clone GEEDCSYHLGELVMCTELDD (peptide)
peptide: GEEDCSYHLGELVMCTELDD
notes: as for B1
For B4, the midpoint of the response with IgG-Fc [1], the EC50, lay at 69 nM.

B5: phage clone KEASCAWHLGELVWCSEVEE (peptide)
peptide: KEASCAWHLGELVWCSEVEE
notes: as for B1
The molecule B5 had a half-maximal effective concentration (EC50) in the test with IgG-Fc [1] of 130 nM.

B6: phage clone GEEDCAWHLGELVWCSGGDF (peptide)
peptide: GEEDCAWHLGELVWCSGGDF
notes: as for B1
With B6, the EC50 in the test with IgG-Fc [1] is 100 nM.

B7: phage clone RVADCAWHMGELVWCSELEV (peptide)
peptide: RVADCAWHMGELVWCSELEV
notes: as for B1
For the molecule B7, the EC50 in the test with IgG-Fc [1] stood at 44 nM.

B8: phage clone AEADCAWHLGELVWCTKVEE (peptide)
peptide: AEADCAWHLGELVWCTKVEE
notes: M13/gIII phage display; ALA Scan on Phage
B8 gave an EC50 with IgG-Fc [2] of 20 nM.

B9: phage clone WEPDCAWHLGELVWCTKVEE (peptide)
peptide: WEPDCAWHLGELVWCTKVEE
notes: as for B8
In the case of B9, the EC50 in the test with IgG-Fc [2] is 36 nM.

B10: phage clone WEADCAWHLGELVWCTKAEE (peptide)
peptide: WEADCAWHLGELVWCTKAEE
notes: as for B8
With B10, in the test with IgG-Fc [2], a half-maximal effect (EC50) was put at 8 nM.

B11: phage clone WEADCAWHLAELVWCTKVEE (peptide)
peptide: WEADCAWHLAELVWCTKVEE
notes: as for B8
In the test with IgG-Fc [2], B11 registered an EC50 of 12 nM.

B12: phage clone WEADCAWHAGELVWCTKVEE (peptide)
peptide: WEADCAWHAGELVWCTKVEE
notes: as for B8
In the test with IgG-Fc [2], B12 had a half-maximal effective concentration (EC50) of 56 nM.

B13: phage clone WEADCAWHLGELVWCTKVAE (peptide)
peptide: WEADCAWHLGELVWCTKVAE
notes: as for B8
In the case of B13, the EC50 with IgG-Fc [2] was determined as 4 nM.

B14: phage clone WEADCAAHLGELVWCTKVEE (peptide)
peptide: WEADCAAHLGELVWCTKVEE
notes: as for B8
B14 yielded a half-maximal effective concentration (EC50) in the test with IgG-Fc [2] of 798 nM.

B15: phage clone WEAACSWHLGELVWCTKVEE (peptide)
peptide: WEAACSWHLGELVWCTKVEE
notes: as for B8
In turn, B15 had an EC50 with IgG-Fc [2] of 10 nM.

B16: phage clone WEADCAWHLGELVACTKVEE (peptide)
peptide: WEADCAWHLGELVACTKVEE
notes: as for B8
In the test with IgG-Fc [2], B16 had a half-maximal effective concentration (EC50) of 3380 nM.

B17: phage clone WEADCAWHLGELAWCTKVEE (peptide)
peptide: WEADCAWHLGELAWCTKVEE
notes: as for B8
The molecule B17 registered an EC50 with IgG-Fc [2] of 4670 nM.

B18: phage clone WEADCAWHLGELVWCTAVEE (peptide)
peptide: WEADCAWHLGELVWCTAVEE
notes: as for B8
Consider B18, for which the EC50 with IgG-Fc [2] was found to be 10 nM.

B19: phage clone WEADCAWHLGALVWCTKVEE (peptide)
peptide: WEADCAWHLGALVWCTKVEE
notes: as for B8
For the molecule B19, the EC50 with IgG-Fc [2] was 11 nM.

B20: phage clone WEAACAWHLGELVWCTKVEE (peptide)
peptide: WEAACAWHLGELVWCTKVEE
notes: as for B8
In the test with IgG-Fc [2], B20 had a half-maximal effective concentration (EC50) of 55 nM.

B21: phage clone WEADCAWHLGEAVWCTKVEE (peptide)
peptide: WEADCAWHLGEAVWCTKVEE
notes: as for B8
For B21, in the test with IgG-Fc [2], the midpoint of the response, the EC50, lay at 1890 nM.

B22: phage clone WAADCAWHLGELVWCTKVEE (peptide)
peptide: WAADCAWHLGELVWCTKVEE
notes: as for B8
In the test with IgG-Fc [2], B22 registered a 50% effective concentration (EC50) of 34 nM.

B23: phage clone WEADCAWHLGELVWCAKVEE (peptide)
peptide: WEADCAWHLGELVWCAKVEE
notes: as for B8
With B23, in the test with IgG-Fc [2], the midpoint of the response, the EC50, lay at 101 nM.

B24: phage clone WEADCAWALGELVWCTKVEE (peptide)
peptide: WEADCAWALGELVWCTKVEE
notes: as for B8
On to B24, for which a half-maximal response in the test with IgG-Fc [2] (EC50) required 139 nM.

B25: phage clone GEEDCAWHLGELVWCTDVED (peptide)
peptide: GEEDCAWHLGELVWCTDVED
notes: as for B1
B25 returned a concentration giving a half-maximal response (EC50) in the test with IgG-Fc [1] of 52 nM.

B26: phage clone EEPDCSWHLGELVMCTPMEV (peptide)
peptide: EEPDCSWHLGELVMCTPMEV
notes: as for B1
B26 yielded an EC50 with IgG-Fc [1] of 14 nM.

B27: phage clone EEPDCSWHLGELVWCTPIEV (peptide)
peptide: EEPDCSWHLGELVWCTPIEV
notes: as for B1
In the test with IgG-Fc [1], B27 returned a concentration giving a half-maximal response (EC50) of 15 nM.

B28: phage clone RVEDCAYHLGELVWCTEGDE (peptide)
peptide: RVEDCAYHLGELVWCTEGDE
notes: as for B1
Turning to B28, the concentration for a half-maximal effect (EC50) in the test with IgG-Fc [1] came out at 63 nM.

B29: phage clone EEASCAYHLGELVWCDAFDV (peptide)
peptide: EEASCAYHLGELVWCDAFDV
notes: as for B1
With B29, a half-maximal effect with IgG-Fc [1] (EC50) was put at 77 nM.

B30: phage clone KEARCWYWHGELVWCSDPEE (peptide)
peptide: KEARCWYWHGELVWCSDPEE
notes: M13/gIII phage display; Focused Libraries
Consider B30, for which the EC50 with IgG-Fc [1] was determined as 809 nM.

B31: phage clone GVRNCAYHLGELVWCTPMEF (peptide)
peptide: GVRNCAYHLGELVWCTPMEF
notes: as for B1
In the test with IgG-Fc [1], B31 returned a concentration for a half-maximal effect (EC50) of 10 nM.

B32: phage clone EQADCAWHLGELVWCTPMVF (peptide)
peptide: EQADCAWHLGELVWCTPMVF
notes: as for B1
In the test with IgG-Fc [1], B32 registered a concentration giving a half-maximal response (EC50) of 8 nM.
On to HSQMEDICLPRWGCLWGDEL (not fully specified (bridges); cysteine pairing not given here, phage clone, Library RB) [RB-B8], for which the binding result with ovalbumin is reported as “no binding”.

B33: phage clone READCAWHLGELVWCSERDL (peptide)
peptide: READCAWHLGELVWCSERDL
notes: as for B1
In turn, B33 gave a concentration for a half-maximal effect (EC50) with IgG-Fc [1] of 47 nM.

B34: phage clone WVEDCAWHMGELVWCTKVDE (peptide)
peptide: WVEDCAWHMGELVWCTKVDE
notes: as for B1
In the test with IgG-Fc [1], B34 yielded an EC50 of 70 nM.
As to QRHPEDICLPRWGCLWGDDD (not fully specified (bridges); cysteine pairing not given here, phage clone, Library RB) [RB-H1], the binding result in the test with ovalbumin is reported as “no binding”.

B35: phage clone KEADCAWHMGELVWCSEMEG (peptide)
peptide: KEADCAWHMGELVWCSEMEG
notes: as for B1
For B35, the concentration for a half-maximal effect (EC50) with IgG-Fc [1] worked out at 66 nM.

B36: phage clone WVDCAYHLGELVWCSTFEE (peptide)
peptide: WVDCAYHLGELVWCSTFEE
notes: M13/gIII phage display; Secondary Optimization; printed with 19 residues
Regarding B36, the EC50 with IgG-Fc [1] came out at 9 nM.

B37: phage clone KEASCSWHLGELVWCVAGVE (peptide)
peptide: KEASCSWHLGELVWCVAGVE
notes: as for B30
In turn, B37 showed an EC50 in the test with IgG-Fc [1] of 225 nM.

B38: phage clone KEASCSYHLGELVWCVAGVE (peptide)
peptide: KEASCSYHLGELVWCVAGVE
notes: as for B30
Molecule B38 registered a concentration giving a half-maximal response (EC50) with IgG-Fc [1] of 416 nM.

B39: phage clone KEASCSYWLGELVWCTEGVE (peptide)
peptide: KEASCSYWLGELVWCTEGVE
notes: as for B30
For B39, the midpoint of the response with IgG-Fc [1], the EC50, lay at 818 nM.

B40: phage clone KEASCSYWLGELVWCSPGVE (peptide)
peptide: KEASCSYWLGELVWCSPGVE
notes: as for B30
Regarding B40, the EC50 with IgG-Fc [1] worked out at 734 nM.

B41: phage clone WEEDCAWHLGELVWCAEFDE (peptide)
peptide: WEEDCAWHLGELVWCAEFDE
notes: as for B1
For the molecule B41, the EC50 with IgG-Fc [1] was determined as 44 nM.

B42: phage clone WVEDCSWHMGELVWCDGGEF (peptide)
peptide: WVEDCSWHMGELVWCDGGEF
notes: as for B30
B42 came in with a half-maximal effective concentration (EC50) with IgG-Fc [1] of 139 nM.

B43: phage clone EVEDCAYHLGELVWCSDLEG (peptide)
peptide: EVEDCAYHLGELVWCSDLEG
notes: as for B1
On to B43, for which the EC50 with IgG-Fc [1] worked out at 82 nM.

B44: phage clone KVADCAWHMGELVWCTEVEG (peptide)
peptide: KVADCAWHMGELVWCTEVEG
notes: as for B1
Consider B44, for which, in the test with IgG-Fc [1], the EC50 stood at 23 nM.

B45: phage clone EVADCSWHLGELVWCTEGEF (peptide)
peptide: EVADCSWHLGELVWCTEGEF
notes: as for B1
As for B45, in the test with IgG-Fc [1], the response was half-maximal at 54 nM (EC50).
On the same count and under the same terms, the figure for DLADCSWHLGELVWCVGLDE (M13/gIII phage display; Designed Clones) [phage clone DLADCSWHLGELVWCVGLDE] is 28 nM.

B46: phage clone KEASCSYWLGELVWCDGLDE (peptide)
peptide: KEASCSYWLGELVWCDGLDE
notes: as for B30
As for B46, it took 326 nM to reach a half-maximal effect in the test with IgG-Fc [1] (EC50).

B47: phage clone KEASCSYWLGELVWCVGLDE (peptide)
peptide: KEASCSYWLGELVWCVGLDE
notes: as for B30
Consider B47, for which, in the test with IgG-Fc [1], it took 278 nM to reach a half-maximal effect (EC50).

B48: phage clone KEASCSYWLGELVWCDTFDE (peptide)
peptide: KEASCSYWLGELVWCDTFDE
notes: as for B30
In turn, B48 had an EC50 with IgG-Fc [1] of 301 nM.

B49: phage clone GEADCSYHLGELVWCNDFEE (peptide)
peptide: GEADCSYHLGELVWCNDFEE
notes: as for B1
In the case of B49, the half-maximal effective concentration (EC50) with IgG-Fc [1] is 156 nM.
Same read-out and setting: the figure for DLADCSWHLGELVWCSRVEG (M13/gIII phage display; Designed Clones) [phage clone DLADCSWHLGELVWCSRVEG] is 9 nM.

B50: phage clone DLADCSYWLGELVWCSRVEG (peptide)
peptide: DLADCSYWLGELVWCSRVEG
notes: as for B30
In the case of B50, in the test with IgG-Fc [1], it took 776 nM to reach a half-maximal effect (EC50).
On the same count and under the same terms, the figure for WVEDCSWHLGELVWCVGLDF (M13/gIII phage display; Designed Clones) [phage clone WVEDCSWHLGELVWCVGLDF] is 31 nM.

B51: phage clone GEASCAYHLGELVWCDEGEG (peptide)
peptide: GEASCAYHLGELVWCDEGEG
notes: as for B1
In the case of B51, in the test with IgG-Fc [1], the EC50 is 386 nM.
